According to US20210147534A1 (RECEPTA BIOPHARMA S A, published 2021):
No end group written: not given here.

Molecular target: T1, recombinant mouse CD74 (mouse, UniProt P04441 56-279, limits assumed)
T1 construct: Bought (Abcam); also called recombinant CD74
T1 sequence (looked up): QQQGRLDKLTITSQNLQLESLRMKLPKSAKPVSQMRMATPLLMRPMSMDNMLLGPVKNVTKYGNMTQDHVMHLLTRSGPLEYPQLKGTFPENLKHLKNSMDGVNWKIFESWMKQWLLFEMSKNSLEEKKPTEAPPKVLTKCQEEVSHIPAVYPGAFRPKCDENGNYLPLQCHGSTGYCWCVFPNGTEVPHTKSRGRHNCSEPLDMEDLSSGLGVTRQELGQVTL
Assay: chemiluminescent dot-blotting, peptide on nitrocellulose, recombinant CD74 in solution
Procedure: Membranes were washed and incubated with primary mouse anti-CD74 or anti-MIF (both from Abcam, Cambridge, UK), washed and incubated with secondary anti-mouse IgG-HRP. Immunoreactivity was determined using the ECL Western Blotting Substrate (Millipore, Billerica, Mass.), and signal was detected in a trans-illuminator Uvitec, Cambridge, UK).

binding result: no binding
B1: Rb10A1 (peptide)
peptide: AARGETARATFAYWGQG-NH2
notes: Linear peptide; N-terminal Cys of Rb10 replaced by alanine; also called A1C
